The source of these data is patent US20260055430, “[…] WITH ALTERED […] ACTIVITY” (Flagship Pioneering Innovations VI, LLC, published 2026).

The subject of data set [1] is Int30 (Integrase 436). Kind of data set: cell_activity. The following applies: ~500 bp region template.
Data set [2] relates to Int182 (Integrase 1227). The data set is described as follows: cell_activity. The following applies: ~500 bp region template.
The test system of data set [3] is Int17 (Integrase 1206). Kind of data set: cell_activity. The following applies: ~500 bp region template.
The test system of data set [4] is Int104 (Integrase 1222). Kind of data set: cell_activity. The note with it: ~500 bp region template.
For data set [5], the system named is Int29/Int105 (Integrase 477). Kind of data set: cell_activity. The note with it: Int29; same accession as Int105 gave 0.77.
Data set [6] concerns Int106 (Integrase 1223). Kind of data set: cell_activity. The note with it: ~500 bp region template.
Data set [7] relates to Int22 (Integrase 1207). Kind of data set: cell_activity. The note with it: ~500 bp region template.
In data set [8] the test system is Int138 (Integrase 1116). Kind of data set: cell_activity. The following applies: HEK293T, template with ~500 bp region containing attP; attP from Table 2.
The subject of data set [9] is Int171 (Integrase 450). Kind of data set: cell_activity. The note with it: ~500 bp region template.
Data set [10] deals with T1, Int94 (Integrase 1219) (UniProt A7GVM1).
T1 sequence: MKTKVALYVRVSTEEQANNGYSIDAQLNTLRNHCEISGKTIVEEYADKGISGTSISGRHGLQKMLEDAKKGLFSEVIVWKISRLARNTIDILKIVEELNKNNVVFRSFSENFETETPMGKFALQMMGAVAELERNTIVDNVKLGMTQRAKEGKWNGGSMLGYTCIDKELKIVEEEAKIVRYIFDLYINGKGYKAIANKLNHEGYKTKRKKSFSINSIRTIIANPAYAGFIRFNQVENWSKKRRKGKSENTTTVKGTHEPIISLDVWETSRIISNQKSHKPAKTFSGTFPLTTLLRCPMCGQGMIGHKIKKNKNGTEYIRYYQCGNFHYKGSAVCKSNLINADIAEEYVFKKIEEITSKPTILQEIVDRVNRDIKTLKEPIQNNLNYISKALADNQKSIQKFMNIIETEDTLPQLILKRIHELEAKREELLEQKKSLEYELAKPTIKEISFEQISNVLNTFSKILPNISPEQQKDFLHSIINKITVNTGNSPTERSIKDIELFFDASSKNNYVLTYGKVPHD
Kind of data set: cell_activity. The note with it: ~500 bp region template.

Data set [11] addresses T2, Int192 (Integrase 165) (UniProt C9DC17 C9DC17:1-507).
T2 sequence: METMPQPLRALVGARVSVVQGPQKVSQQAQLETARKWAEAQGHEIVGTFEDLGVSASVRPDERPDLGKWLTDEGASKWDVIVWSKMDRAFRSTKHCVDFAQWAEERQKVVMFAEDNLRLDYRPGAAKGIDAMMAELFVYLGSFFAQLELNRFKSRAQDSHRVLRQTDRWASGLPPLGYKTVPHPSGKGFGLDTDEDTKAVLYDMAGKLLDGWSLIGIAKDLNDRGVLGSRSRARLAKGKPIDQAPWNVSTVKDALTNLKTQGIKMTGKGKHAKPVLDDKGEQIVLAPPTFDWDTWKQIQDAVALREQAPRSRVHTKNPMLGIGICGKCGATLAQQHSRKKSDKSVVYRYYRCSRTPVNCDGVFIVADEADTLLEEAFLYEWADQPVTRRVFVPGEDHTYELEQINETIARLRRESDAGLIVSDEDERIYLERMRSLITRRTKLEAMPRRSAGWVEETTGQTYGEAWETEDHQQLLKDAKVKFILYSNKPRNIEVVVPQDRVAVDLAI
The data set is described as follows: cell_activity; ~500 bp region template.

Data set [12] addresses T3, Int103 (Integrase 1221) (UniProt Q928V6 Q928V6:1-452).
T3 sequence: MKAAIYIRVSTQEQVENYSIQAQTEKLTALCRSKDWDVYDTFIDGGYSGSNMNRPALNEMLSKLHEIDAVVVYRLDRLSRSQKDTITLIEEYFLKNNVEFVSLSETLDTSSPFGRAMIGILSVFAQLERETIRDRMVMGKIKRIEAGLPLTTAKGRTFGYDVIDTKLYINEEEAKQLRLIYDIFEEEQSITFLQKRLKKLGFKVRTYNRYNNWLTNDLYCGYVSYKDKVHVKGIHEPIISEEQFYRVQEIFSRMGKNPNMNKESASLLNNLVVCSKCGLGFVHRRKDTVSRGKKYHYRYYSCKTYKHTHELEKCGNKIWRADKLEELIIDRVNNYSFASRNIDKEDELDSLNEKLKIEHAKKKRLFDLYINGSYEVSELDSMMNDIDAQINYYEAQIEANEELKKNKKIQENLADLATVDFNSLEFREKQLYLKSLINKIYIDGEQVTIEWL
The data set is described as follows: cell_activity; ~500 bp region template.

Data set [13] has as its target T4, Int60 (Integrase 27) (UniProt Q858X3 Q858X3:1-594).
T4 sequence: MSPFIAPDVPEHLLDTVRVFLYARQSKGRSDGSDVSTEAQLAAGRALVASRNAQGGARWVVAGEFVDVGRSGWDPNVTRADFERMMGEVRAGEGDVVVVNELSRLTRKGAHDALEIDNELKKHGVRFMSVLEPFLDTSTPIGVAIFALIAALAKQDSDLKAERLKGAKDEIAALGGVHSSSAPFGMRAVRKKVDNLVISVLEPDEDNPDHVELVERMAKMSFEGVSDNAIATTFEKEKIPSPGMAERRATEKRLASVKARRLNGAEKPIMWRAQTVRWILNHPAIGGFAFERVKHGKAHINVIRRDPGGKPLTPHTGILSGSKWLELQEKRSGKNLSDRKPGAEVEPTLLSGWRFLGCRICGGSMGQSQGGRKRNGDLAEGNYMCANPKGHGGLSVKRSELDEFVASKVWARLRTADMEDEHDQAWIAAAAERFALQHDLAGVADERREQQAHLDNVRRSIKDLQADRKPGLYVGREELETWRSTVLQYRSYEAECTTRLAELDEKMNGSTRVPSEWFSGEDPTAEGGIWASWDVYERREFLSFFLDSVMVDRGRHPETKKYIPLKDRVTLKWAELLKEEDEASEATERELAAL
The data set is described as follows: cell_activity; ~500 bp region template.

Consider “ATTTTAGGTATATGATTTTGTTTATTAGTGTAAATAACACTATGTACCTAAAAT (double strand) [436 attP]”, for which the activity in data set [1] was 10.1 % GFP+.

Take “AAATATAACCTGTGTATTGAAACAAGGTGCTGATAAAACCCTTTCATAAACACAAGTAAATA (double strand) [1227 attP]”: the activity in data set [2] stood at 0.22 % GFP+.

Molecule “GTTAGGTGTATATCATACCTAACGCAATTCATTACATCACATATGTTATACACCTACTTTAA (double strand) [1206 attP]” showed an activity in data set [3] of 0.123 % GFP+.

In data set [4], “TTCCTCGTTTTCTCTCGTTGGACGGAAACGAATCGAGAAA (double strand) [1222 attP]” returned an activity of 0.58 % GFP+.

As for “TTCCTCGTTTTCTCTCGTTGGAAGAAGAAGAAACGAGAAA (double strand) [477 attP]”, the activity in [5] came out at 0.91 % GFP+.

In [6], “CAATGAAAAACTAGGCATGTAGAAGTTGTTTGT (double strand) [1223 attP]” gave an activity of 1.77 % GFP+.

Consider “AAAAGAATCCAAATTATCGTACTTTAACATAGTGAATACTGTCCATCATGTATAAAAGTACG (double strand) [1207 attP]”, for which, in [7], the activity was determined as 0.16 % GFP+.

As for “TGTAGTAAGTATCTTAATATACAGCTTTATCTGTTTTTTAAGATACTTACTACTTT (double strand) [1116 attP]”, the activity in [8] worked out at 27.6 % GFP+.

In the case of “TATTAGTATAGAAGAAAGCTCTCAGCACACGTGGAGTGTGTTGCTCTCTGCTCGTAAAGCCT (double strand) [450 attP]”, the activity in data set [9] is 0.16 % GFP+.

In turn, “CAATAACGGTTGTATTTGTAGAACTTGACCAGTTGTTTTAGTAACATAAATACAACTCCGAATA (double strand) [1219 attP]” gave an activity in data set [10] of 0.23 % GFP+.

B1: 165 attP (dsDNA)
DNA 1: TAGTTTCCAATGTTACAGGAACTGCTGGCAGAATCCAACACATTGGAAGTCG
DNA 2: CGACTTCCAATGTGTTGGATTCTGCCAGCAGTTCCTGTAACATTGGAAACTA
In data set [11], B1 returned an activity of 0.57 % GFP+.

B2: 1221 attP (dsDNA)
DNA 1: GTTTAGTATCTCGTTATCTCTCGTTGGAGGGAGAAGAAACGGGATACCAAAA
DNA 2: TTTTGGTATCCCGTTTCTTCTCCCTCCAACGAGAGATAACGAGATACTAAAC
The molecule B2 yielded an activity in data set [12] of 0.22 % GFP+.

B3: 27 attP (dsDNA)
DNA 1: GGTGCTGGGTTGTTGTCTCTGGACAGTGATCCATGGGAAACTACTCAGCACC
DNA 2: GGTGCTGAGTAGTTTCCCATGGATCACTGTCCAGAGACAACAACCCAGCACC
Consider B3, for which the activity in [13] came out at 0.17 % GFP+.
